Source: patent US12060408B2, “Screening assays, modulators and modulation of activation of Receptor for Advanced Glycation End-products (RAGE)” (Monash University, priority 2017, dated 2024)
Entries after “also recorded” stand apart in the source; their conditions may differ. Ends that are not written are not given here.

B1: S100A8/A9: RAGE ligand (protein)
chain 1: MLTELEKALNSIIDVYHKYSLIKGNFHAVYRDDLKKLLETECPQYIRKKGADVWFKELDINTDGAVNFQEFLILVIKMGVAAHKKSHEESHKE
chain 2: MTCKMSQLERNIETIINTFHQYSVKLGHPDTLNQGEFKELVRKDLQNFLKKENKNEKVIEHIMEDLDTNADKQLSFEEFIMLMARLTWASHEKMHEGDEGPGHHHKPGLGEGTP

Assays:
[1] = biological target: T1, RAGE (Mus musculus, UniProt Q62151); test: Ang II-induced ICAM-1 gene expression in murine SVEC; type: cell-based; settings: murine SVEC endogenously replete in RAGE; transfected constructs; 1 μM Ang II; FIG. 12A, 12B, 12D
T1 construct: in murine SVEC that are endogenously replete in RAGE expression; host or cells: Svec4-10 mouse endothelial cells
T1 sequence (Q62151 23-402): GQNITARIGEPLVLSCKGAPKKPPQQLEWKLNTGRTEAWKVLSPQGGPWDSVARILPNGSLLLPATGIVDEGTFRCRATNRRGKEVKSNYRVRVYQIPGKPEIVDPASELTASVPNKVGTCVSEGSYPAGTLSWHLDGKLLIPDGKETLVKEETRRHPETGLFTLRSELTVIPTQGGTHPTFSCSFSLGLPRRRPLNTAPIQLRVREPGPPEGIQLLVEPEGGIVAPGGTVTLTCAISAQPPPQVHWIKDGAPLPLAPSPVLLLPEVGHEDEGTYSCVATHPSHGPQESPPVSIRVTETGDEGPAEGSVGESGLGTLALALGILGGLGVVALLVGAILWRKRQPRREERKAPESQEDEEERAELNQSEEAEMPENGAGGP
Procedure: To explore the potential for RAGE constructs to inhibit transactivation of endogenous RAGE, additional experiments were conducted in immortalized mouse endothelial cells (Svec4-10, ATCC) cultured in 10% FBS/DMEM with 25 mM glucose were used. SVEC were transfected with truncated RAGE constructs using Lipofectamine 2000 (Invitrogen) as per manufacturer's instructions, or treated with RAGE oligopeptides (280 μM). Cells were allowed to recover in media containing 10% FBS for 16 hours prior to treatment with 1 μM Ang II.

[2] = test system: RAGE ligand-independent activation of RAGE by activated AT1R; test: Ang II-induced NFκB activation (p65 gene expression, SEAP reporter) in AT1R-CHO cells with RAGE constructs; type: cell-based, human; settings: construct expressed in AT1R-CHO cells, no wild-type RAGE
Procedure: (§1) Generation of Transgenic Chinese Hamster Ovary Cells
(§2) 100 ng of AT1R-Rluc8 construct was transfected into CHO cells using Lipofectamine 2000 (Thermo). Stable transfectants were selected using G418. AT1R—CHO were then transiently transfected with RAGE constructs using Lipofectamine 2000 (Invitrogen) and incubated for 16 h. The Homo sapiens AGER transcript variant 1 coding sequence (NM_001136) was synthesised and cloned between the NheI and XbaI sites of pCIneo (Promega) to generate the vector pCIneo-RAGE. This plasmid was then used to generate a library of mutant AGER clones (NP_001127). Primers 1-RAGE-SP-5′ and mCherry-XhoI-NotI-3′ were used to amplify the coding sequence of mCherry from the vector pmCherry-C1. The resultant PCR product was then used as template for a second PCR using primers 2-RAGE-SP-5′ and mCherry-XhoI-NotI-3′. The PCR product generated was digested with NheI and NotI and inserted between the NheI and NotI sites of pCIneo to generate pCIneo-SP-mCherry. The sequence of the insert was confirmed by DNA sequencing (Micromon, Monash University). […]
(§3) Cellular Expression of Pro-Inflammatory Markers and Mediators by Quantitative Real-Time PCR
(§4) After 2 hours of exposure to Ang II (1 μM) or the RAGE ligand, S100A8/A9 (5 ng/ml) cells were placed in Trizol, mRNA extracted and cDNA synthesized. Changes in the gene expression of the NFκB subunit, p65 (RelA) or NFκB-activated target genes (e.g ICAM-1, VCAM-1) were estimated by quantitative real-time RT-PCR, performed using the TaqMan system based on real-time detection of accumulated fluorescence (ABI Prism 7700, Perkin-Elmer Inc, PE Biosystems, Foster City, CA, USA). Gene expression was normalized to 18S mRNA and reported as fold change compared to the level of expression in untreated control mice/cells, which were given an arbitrary value of 1.
Oligopeptides (Cherry-TAT (control), mCherry-TAT-RAGE362-404 and mCherry-S391A-TAT-RAGE362-404 were generated by transformation of the Escherichia coli strain ClearColi BL21 (DE3; Lucigen). A single transformed colony was inoculated into 50 ml 2YT medium containing 100 μg/ml ampicillin and the culture was grown overnight at 37° C. with shaking at 250 rev/min. 10 ml overnight culture was used to inoculate 1 litre 2YT medium containing 100 μg/ml ampicillin and the culture was grown at 37° C. with shaking at 250 rev/min. When the cultures reached an OD600 of 0.8, the temperature was shifted to 15° C. for 30 min after which protein expression was induced by the addition of 1 mM isopropyl β-D-1-thiogalacto-pyranoside (IPTG). Following the addition of IPTG the cultures were grown for ˜16 h at 15° C. with shaking at 250 rev/min. Cells were harvested by centrifugation (3500 g, 4° C., 20 min) and resuspended in ice-cold lysis buffer (50 mM Tris pH 7.4, 300 mM NaCl, 10 mM imidazole and 5 mM beta-mercaptoethanol). The resuspended cells were sonicated and insoluble material was pelleted by centrifugation (13 000 g, 4° C., 30 min). The supernatant was filtered (0.2 μm) and applied onto a gravity-flow column with a 1 ml Ni-NTA Agarose resin bed volume (Qiagen) pre-equilibrated with lysis buffer. After the supernatant was passed over the resin, the column was washed with 100 ml of wash buffer (20 mM imidazole, 50 mM Tris pH 7.4, 150 mM NaCl, 5 mM beta-mercaptoethanol). His-tagged TAT-mCherry and TAT-mCherry-RAGE peptides were eluted from the resin using elution buffer (250 mM imidazole, 50 mM Tris pH 7.4, 150 mM NaCl, 5 mM beta-mercaptoethanol). […]

[3] = test system: primary murine aortic endothelial cells (PMAEC); test: Expression of pro-inflammatory markers by real-time RT-PCR in primary murine aortic endothelial cells; type: cell-based, mouse
Procedure: Primary aortic endothelial cells (PMAEC) were isolated from the aortae of (wild-type) C57bl6 mice and AGER KO mice and cultured in Dulbecco's modified Eagle's medium (DMEM)/F12 endothelial cell growth supplement (ECGS) supplemented media. Chinese Hamster Ovary (CHO) cells were cultured using F12 media (10% FCS with 2 mM glutamine). Human microvascular endothelial cells (HMEC) were cultured in MCDB 131 medium (10% FCS with 10 mM glutamine, EGF and hydrocortisone).
as §3, §4
Selective Silencing of Gene Expression Using siRNA
PMAEC from C57b/6 mice were also transfected with siRNA to RAGE (2 nM) Ambion, ID:s62119), p65 (RelA) (10 nM; Ambion, ID:s72857), MyD88 (10 nM; Ambion. ID:s201719), PKCζ (10 nM; Ambion, ID:s71716), IQGAP-1, Ambion, ID:s78119), Diaph1 (10 nM; sense5′-[…], antisense 3′-[…]; Invitrogen) or scrambled control #1 (2 nM or 10 nM; Ambion) using Lipofectamine RNAiMAX (Invitrogen) as per manufacturer's instructions. Cells were allowed to recover in media containing 10% FBS for 16 hours prior to treatment with 1 μM Ang II or 5 ng/ml of the RAGE ligand, S100A8/A9, as a signalling control.

[4] = test system: RAGE ligand-dependent activation of RAGE; test: S100A8/A9-induced NFκB activation (p65 gene expression) in CHO cells expressing RAGE constructs; type: cell-based, human
Procedure: as §1, §2, §3, §4
To measure the induction of NFκB activity by 1 μM Ang II, or 5 ng/ml of the RAGE-ligand S100A8/A9 as a signalling control, AT1R—CHO cells were transfected with 0.4 μg of plasmids encoding NFκB-SEAP or β-galactosidase (β-Gal) using Lipofectamine 2000 (Invitrogen) as per manufacturer's instructions. After 24 hours, cells transfected with each plasmid combination were then treated with Ang II (1 μM) or left untreated and incubated for 4 hours before cell supernatants and cell lysates were collected. Cell supernatants were analysed using a chemiluminescent SEAP reporter gene assay (Roche Applied Science) to detect SEAP production after treatment. To control for transfection efficiency, cell lysates were assayed for β-Gal using a commercially available kit (Promega).

Molecule | induction of ICAM-1 gene expression by Ang II [1] | other results
E382A-RAGE370-390: alanine mutant of RAGE370-390 (GEERKAPENQEEAEERAELNQ; cytosolic tail peptide; UniProt Q15109 370-390, looked up, variant E382A) | continue to inhibit | –
RAGE379-404: N-truncated RAGE construct, functional substitute of wild type RAGE (QEEEEERAELNQSEEPEAGESSTGGP; UniProt Q15109 379-404, looked up, fragment) | – | ability of the RAGE construct to be activated and mediate pro-inflammatory signalling in response to Ang II [2]: does not result in a loss of function; also recorded: able to be activated
TNFα | – | canonical and non-canonical signalling downstream of NFκB (CXCL2, CXCL12) ([3]; PMAEC from C57bl6 mice): selectively induce canonical signalling
E380A-RAGE370-390: alanine mutant of RAGE370-390 (GEERKAPENQAEEEERAELNQ; cytosolic tail peptide; UniProt Q15109 370-390, looked up, variant E380A) | continue to inhibit | –
RAGE22-404: full length wild-type RAGE construct | does not affect | –
Q390A-RAGE370-390: glutamine-to-alanine mutant of RAGE370-390 (GEERKAPENQEEEEERAELNA; cytoplasmic region peptide; UniProt Q15109 370-390, looked up, variant Q390A) | lost | –
Q390K-RAGE370-390: glutamine-to-lysine mutant of RAGE370-390 (GEERKAPENQEEEEERAELNK; cytosolic tail peptide; UniProt Q15109 370-390, looked up, variant Q390K) | retain the greatest inhibitory effect | –
S391A-RAGE22-404: full length RAGE construct with S391 mutated to alanine | able to prevent | –
mCherry-S391A-RAGE362-404: N-truncated mCherry-RAGE cytosolic tail construct with S391A (LWQRRQRRGEERKAPENQEEEEERAELNQAEEPEAGESSTGGP; also: mCherry fusion; UniProt Q15109 362-404, looked up, fragment S391A) | able to prevent | –
soluble RAGE22-331: decoy receptor with ligand-binding affinity [reference compound] | – | inhibition of Ang II (1 μM)-induced ICAM-1, VCAM-1 and MCP-1 ([3]; PMAEC from wild type mice): do not inhibit; inhibition of S100A8/A9-induced ICAM-1 ([3]; PMAEC from wild type mice): inhibit; inhibition of S100A8/A9-induced p65 expression ([4]; AT1R-CHO cells also expressing full length RAGE): inhibit
E384A-RAGE370-390: alanine mutant of RAGE370-390 (GEERKAPENQEEEEARAELNQ; cytosolic tail peptide; UniProt Q15109 370-390, looked up, variant E384A) | continue to inhibit | –
m-Cherry-RAGE370-395: C-truncated S391X-RAGE mutant fused to mCherry (GEERKAPENQEEEEERAELNQSEEPE; also: mCherry fusion, not in chain; UniProt Q15109 370-395, looked up, fragment) | prevents | –
Q379K-RAGE370-390: glutamine-to-lysine mutant of RAGE370-390 (GEERKAPENKEEEEERAELNQ; cytoplasmic region peptide; UniProt Q15109 370-390, looked up, variant Q379K) | retain the greatest inhibitory effect | –
RAGE385-404: N-truncated RAGE construct eliminating both 380 and 384 (RAELNQSEEPEAGESSTGGP; UniProt Q15109 385-404, looked up, fragment) | – | ability of the RAGE construct to be activated and mediate pro-inflammatory signalling in response to Ang II [2]: loss of the modulatory actions
Q379A-RAGE370-390: glutamine-to-alanine mutant of RAGE370-390 (GEERKAPENAEEEEERAELNQ; cytosolic tail peptide; UniProt Q15109 370-390, looked up, variant Q379A) | lost | –
B1 | – | induction of pro-inflammatory genes ([3]; PMAEC from AGER KO mice): does not lead to the induction; expression of pro-inflammatory genes (ICAM-1, VCAM-1, TNFα, MCP-1) ([3]; PMAEC from C57bl6 mice, Ang II 1 μM or S100A8/A9): induction; NFκB-dependent induction of VCAM-1 gene expression ([3]; PMAEC with AGER expression silenced using siRNA): preventing; activation of p65-NFκB ([4]; CHO cells expressing the RAGE polypeptide, 5 ng/ml): able to induce activation
